The supplement of paper PMC10065799, “High-throughput profiling of sequence recognition by tyrosine kinases and SH2 domains using bacterial peptide display” (eLife, 2023)
One block for each sequence: values may come before it.

Key:
[1] = tested on: Fer (mouse); assay: phosphorylation enrichment, bacterial display (enrichment ratio); higher = better substrate or ligand; peptides without Tyr show the background
[2] = target: EPHB2 (UniProt P29323); assay: as above
[3] = tested on: AncSZ; assay: as above
[4] = tested on: c-Src; assay: as above
[5] = tested on: c-Abl (mouse); assay: as above
[6] = target: Fyn (UniProt P06241); assay: as above
Fyn, sequence (P06241 whole entry, looked up): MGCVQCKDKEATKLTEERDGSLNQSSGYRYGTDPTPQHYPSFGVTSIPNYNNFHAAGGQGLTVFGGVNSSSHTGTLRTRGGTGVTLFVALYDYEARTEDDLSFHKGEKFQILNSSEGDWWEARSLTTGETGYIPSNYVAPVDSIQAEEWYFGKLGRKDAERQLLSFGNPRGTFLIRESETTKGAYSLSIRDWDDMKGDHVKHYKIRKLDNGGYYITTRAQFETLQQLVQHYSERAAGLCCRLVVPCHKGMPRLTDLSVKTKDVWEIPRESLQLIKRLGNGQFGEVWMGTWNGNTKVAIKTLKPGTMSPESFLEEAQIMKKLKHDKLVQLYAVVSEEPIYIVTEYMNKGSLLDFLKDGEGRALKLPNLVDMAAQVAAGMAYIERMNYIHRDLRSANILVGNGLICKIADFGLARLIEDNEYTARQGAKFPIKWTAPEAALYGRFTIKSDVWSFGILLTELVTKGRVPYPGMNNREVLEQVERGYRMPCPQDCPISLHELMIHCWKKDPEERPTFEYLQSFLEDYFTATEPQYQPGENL

[7] = target: MERTK (UniProt Q12866); assay: as above
MERTK, sequence (Q12866 whole entry, looked up): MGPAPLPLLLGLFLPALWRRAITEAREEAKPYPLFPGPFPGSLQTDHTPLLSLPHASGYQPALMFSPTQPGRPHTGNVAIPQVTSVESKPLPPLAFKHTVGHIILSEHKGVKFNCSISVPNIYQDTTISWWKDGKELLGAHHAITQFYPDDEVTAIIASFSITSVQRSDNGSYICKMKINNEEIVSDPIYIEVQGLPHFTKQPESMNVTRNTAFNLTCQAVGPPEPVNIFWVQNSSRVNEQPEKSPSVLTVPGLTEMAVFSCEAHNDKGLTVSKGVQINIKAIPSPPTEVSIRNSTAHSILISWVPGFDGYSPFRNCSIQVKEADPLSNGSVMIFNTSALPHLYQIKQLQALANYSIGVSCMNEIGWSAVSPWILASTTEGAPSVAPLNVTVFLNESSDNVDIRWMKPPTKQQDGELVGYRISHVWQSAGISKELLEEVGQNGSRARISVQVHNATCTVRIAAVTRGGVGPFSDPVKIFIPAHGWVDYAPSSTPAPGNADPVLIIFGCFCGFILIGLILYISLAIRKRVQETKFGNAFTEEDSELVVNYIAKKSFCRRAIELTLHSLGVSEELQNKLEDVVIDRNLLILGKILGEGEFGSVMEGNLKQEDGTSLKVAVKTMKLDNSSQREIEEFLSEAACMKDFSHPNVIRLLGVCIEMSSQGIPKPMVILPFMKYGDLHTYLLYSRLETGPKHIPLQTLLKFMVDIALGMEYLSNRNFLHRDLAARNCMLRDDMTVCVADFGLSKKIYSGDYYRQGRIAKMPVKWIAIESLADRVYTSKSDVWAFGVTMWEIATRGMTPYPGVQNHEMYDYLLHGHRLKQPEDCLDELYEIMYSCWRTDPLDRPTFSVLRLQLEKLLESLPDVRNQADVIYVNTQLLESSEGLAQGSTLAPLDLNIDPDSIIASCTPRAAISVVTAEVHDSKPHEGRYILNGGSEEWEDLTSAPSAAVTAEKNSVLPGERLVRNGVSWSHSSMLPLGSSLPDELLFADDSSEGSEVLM

[8] = target: FGFR1 (UniProt P11362); assay: as above
[9] = target: Jak2 (UniProt O60674); assay: as above
Jak2, sequence (O60674 whole entry, looked up): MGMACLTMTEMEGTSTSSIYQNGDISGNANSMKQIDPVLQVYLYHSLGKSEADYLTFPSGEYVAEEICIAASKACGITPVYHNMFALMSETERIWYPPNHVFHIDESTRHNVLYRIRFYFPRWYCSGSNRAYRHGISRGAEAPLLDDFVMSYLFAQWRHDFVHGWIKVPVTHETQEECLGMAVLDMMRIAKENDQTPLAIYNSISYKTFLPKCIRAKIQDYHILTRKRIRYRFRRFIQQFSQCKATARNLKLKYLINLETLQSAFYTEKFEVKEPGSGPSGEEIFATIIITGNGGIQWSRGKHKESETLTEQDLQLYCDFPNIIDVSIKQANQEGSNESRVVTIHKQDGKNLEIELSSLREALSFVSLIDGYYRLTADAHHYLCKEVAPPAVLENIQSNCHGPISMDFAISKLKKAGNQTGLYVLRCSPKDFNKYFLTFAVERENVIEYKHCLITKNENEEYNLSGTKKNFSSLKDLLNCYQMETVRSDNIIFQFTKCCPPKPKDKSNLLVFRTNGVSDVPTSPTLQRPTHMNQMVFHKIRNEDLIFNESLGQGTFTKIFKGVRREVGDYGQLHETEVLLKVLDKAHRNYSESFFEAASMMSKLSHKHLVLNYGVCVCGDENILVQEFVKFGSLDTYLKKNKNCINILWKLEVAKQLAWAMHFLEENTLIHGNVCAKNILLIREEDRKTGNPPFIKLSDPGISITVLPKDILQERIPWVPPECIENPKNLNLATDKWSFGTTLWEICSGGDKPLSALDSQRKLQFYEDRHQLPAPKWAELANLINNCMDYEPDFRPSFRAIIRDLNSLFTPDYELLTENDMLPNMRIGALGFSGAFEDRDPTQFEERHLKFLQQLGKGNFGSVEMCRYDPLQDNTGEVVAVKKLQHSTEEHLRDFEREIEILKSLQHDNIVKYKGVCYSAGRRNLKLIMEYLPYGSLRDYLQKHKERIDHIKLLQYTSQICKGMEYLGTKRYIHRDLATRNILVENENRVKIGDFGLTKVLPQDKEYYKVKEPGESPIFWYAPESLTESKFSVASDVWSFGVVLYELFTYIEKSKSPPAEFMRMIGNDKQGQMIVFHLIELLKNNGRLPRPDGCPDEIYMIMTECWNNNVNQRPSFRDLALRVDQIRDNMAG

[10] = target: Hck (UniProt P08631); assay: as above
Hck, sequence (P08631 whole entry, looked up): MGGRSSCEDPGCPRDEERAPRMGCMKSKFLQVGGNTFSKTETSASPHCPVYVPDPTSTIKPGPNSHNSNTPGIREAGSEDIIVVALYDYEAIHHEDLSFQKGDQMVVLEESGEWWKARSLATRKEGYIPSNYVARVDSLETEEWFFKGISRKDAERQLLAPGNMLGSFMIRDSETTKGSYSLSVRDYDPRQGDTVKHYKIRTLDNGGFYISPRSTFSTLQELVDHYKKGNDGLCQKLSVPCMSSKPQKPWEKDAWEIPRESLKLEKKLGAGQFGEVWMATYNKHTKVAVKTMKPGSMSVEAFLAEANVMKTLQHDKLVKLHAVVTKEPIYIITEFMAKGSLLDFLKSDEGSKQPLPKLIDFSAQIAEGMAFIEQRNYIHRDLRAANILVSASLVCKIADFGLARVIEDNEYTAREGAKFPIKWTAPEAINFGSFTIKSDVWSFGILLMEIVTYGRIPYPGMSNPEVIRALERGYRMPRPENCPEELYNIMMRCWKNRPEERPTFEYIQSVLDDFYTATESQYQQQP

[11] = target: FGFR3 (UniProt P22607); assay: as above
FGFR3, sequence (P22607 whole entry, looked up): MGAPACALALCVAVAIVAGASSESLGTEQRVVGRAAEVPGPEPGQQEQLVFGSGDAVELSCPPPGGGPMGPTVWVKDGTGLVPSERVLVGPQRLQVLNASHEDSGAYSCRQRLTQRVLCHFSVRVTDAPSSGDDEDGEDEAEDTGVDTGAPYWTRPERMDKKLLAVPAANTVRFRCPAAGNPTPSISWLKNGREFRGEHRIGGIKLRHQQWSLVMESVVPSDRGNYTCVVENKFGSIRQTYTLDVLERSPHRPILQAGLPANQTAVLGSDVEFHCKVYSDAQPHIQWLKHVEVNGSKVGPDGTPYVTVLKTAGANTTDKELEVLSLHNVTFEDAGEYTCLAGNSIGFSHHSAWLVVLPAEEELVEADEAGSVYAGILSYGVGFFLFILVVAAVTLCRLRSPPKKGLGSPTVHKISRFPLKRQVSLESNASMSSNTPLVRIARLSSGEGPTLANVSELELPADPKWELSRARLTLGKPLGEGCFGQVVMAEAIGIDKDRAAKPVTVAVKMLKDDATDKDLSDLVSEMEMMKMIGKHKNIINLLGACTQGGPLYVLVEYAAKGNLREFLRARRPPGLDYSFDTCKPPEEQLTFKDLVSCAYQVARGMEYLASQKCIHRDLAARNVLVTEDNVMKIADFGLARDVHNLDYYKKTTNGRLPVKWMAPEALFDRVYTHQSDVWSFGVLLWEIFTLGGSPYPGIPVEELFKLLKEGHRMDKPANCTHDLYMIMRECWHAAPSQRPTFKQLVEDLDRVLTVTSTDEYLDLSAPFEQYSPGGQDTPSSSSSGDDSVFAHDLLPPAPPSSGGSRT

[12] = target: Fes (UniProt P07332); assay: as above
[13] = target: EPHB1 (UniProt P54762); assay: as above
[14] = target: SHP2-C SH2; assay: SH2 binding enrichment of the phosphorylated peptide, bacterial display (enrichment ratio); higher = better substrate or ligand; peptides without Tyr show the background
[15] = target: Grb2 SH2 (UniProt P62993); assay: as above
[16] = target: c-Src SH2; assay: as above
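Wherever SH2 binding enrichment of the phosphorylated peptide, bacterial display is given: peptide library displayed on the E. coli surface as eCPX fusions, selected cells deep-sequenced, score is each peptide's frequency after selection divided by its frequency in the input.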
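Wherever phosphorylation enrichment, bacterial display is given: 11-residue human phosphosite peptides and single-mutation variants displayed on the E. coli surface, counted by deep sequencing, each peptide's frequency after selection divided by its frequency in the unselected input library; frequency after pTyr selection over input frequency; kinase dosed for 20-30% of maximal phosphorylation in three min.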

EPHB2, sequence (P29323 whole entry, looked up): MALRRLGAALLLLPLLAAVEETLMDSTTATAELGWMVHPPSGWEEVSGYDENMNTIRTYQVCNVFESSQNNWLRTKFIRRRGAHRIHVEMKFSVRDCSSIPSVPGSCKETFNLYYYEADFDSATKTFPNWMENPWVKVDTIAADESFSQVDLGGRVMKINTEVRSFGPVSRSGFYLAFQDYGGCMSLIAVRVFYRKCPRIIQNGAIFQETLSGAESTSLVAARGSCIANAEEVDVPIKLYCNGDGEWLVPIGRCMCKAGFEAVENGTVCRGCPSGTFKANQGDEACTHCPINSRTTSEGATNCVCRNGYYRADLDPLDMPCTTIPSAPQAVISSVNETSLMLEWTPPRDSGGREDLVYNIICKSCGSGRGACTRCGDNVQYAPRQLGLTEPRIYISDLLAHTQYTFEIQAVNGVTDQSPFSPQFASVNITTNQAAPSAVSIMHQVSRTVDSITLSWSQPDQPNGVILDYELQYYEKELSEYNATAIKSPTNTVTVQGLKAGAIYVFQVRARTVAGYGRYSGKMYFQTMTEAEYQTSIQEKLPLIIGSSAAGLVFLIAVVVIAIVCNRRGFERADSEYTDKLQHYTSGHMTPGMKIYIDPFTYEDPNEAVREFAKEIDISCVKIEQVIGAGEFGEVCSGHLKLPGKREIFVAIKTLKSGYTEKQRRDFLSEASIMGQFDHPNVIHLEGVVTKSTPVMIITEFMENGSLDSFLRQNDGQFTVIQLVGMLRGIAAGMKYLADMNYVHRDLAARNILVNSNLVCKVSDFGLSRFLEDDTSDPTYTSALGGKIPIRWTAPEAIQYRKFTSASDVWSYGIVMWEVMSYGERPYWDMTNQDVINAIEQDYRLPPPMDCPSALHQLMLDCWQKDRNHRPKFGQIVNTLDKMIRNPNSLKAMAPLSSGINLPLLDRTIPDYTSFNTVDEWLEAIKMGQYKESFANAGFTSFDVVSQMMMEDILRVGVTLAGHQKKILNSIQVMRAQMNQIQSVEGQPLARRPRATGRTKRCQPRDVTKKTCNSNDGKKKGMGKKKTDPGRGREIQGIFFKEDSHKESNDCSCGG

Sequence: VSFDEYRFRSV [CFTR_Y515_YF]
phosphorylation enrichment [1]: 0.567
phosphorylation enrichment [2]: 0.591
phosphorylation enrichment [3]: 0.972
phosphorylation enrichment [4]: 0.614
phosphorylation enrichment [5]: 0.862
phosphorylation enrichment [6]: 0.489
phosphorylation enrichment [7]: 0.6
phosphorylation enrichment [8]: 0.515
phosphorylation enrichment [9]: 1.14
phosphorylation enrichment [10]: 0.574
phosphorylation enrichment [11]: 0.699
phosphorylation enrichment [12]: 1.22
phosphorylation enrichment [13]: 0.519
SH2 binding enrichment [14]: 0.55
SH2 binding enrichment [15]: 0.776
SH2 binding enrichment [16]: 0.477

Sequence: VSFGEYRFRSV [CFTR_Y515_D513G_YF]
phosphorylation enrichment [1]: 0.402
phosphorylation enrichment [2]: 0.443
phosphorylation enrichment [3]: 0.668
phosphorylation enrichment [4]: 0.489
phosphorylation enrichment [5]: 0.672
phosphorylation enrichment [6]: 0.356
phosphorylation enrichment [7]: 0.395
phosphorylation enrichment [8]: 0.523
phosphorylation enrichment [9]: 0.574
phosphorylation enrichment [10]: 0.469
phosphorylation enrichment [11]: 0.513
phosphorylation enrichment [12]: 0.801
phosphorylation enrichment [13]: 0.431
SH2 binding enrichment [14]: 0.9
SH2 binding enrichment [15]: 0.792
SH2 binding enrichment [16]: 0.528

Sequence: VSYGEYRYRSV [CFTR_Y515_D513G]
phosphorylation enrichment [1]: 0.442
phosphorylation enrichment [2]: 0.416
phosphorylation enrichment [3]: 0.688
phosphorylation enrichment [4]: 3.22
phosphorylation enrichment [5]: 0.605
phosphorylation enrichment [6]: 5.66
phosphorylation enrichment [7]: 0.363
phosphorylation enrichment [8]: 0.505
phosphorylation enrichment [9]: 0.612
phosphorylation enrichment [10]: 2.04
phosphorylation enrichment [11]: 0.469
phosphorylation enrichment [12]: 0.824
phosphorylation enrichment [13]: 0.452
SH2 binding enrichment [14]: 0.369
SH2 binding enrichment [15]: 0.529
SH2 binding enrichment [16]: 0.451

Sequence: VTNHIYTWVDP [DFNB31_Y234]
phosphorylation enrichment [1]: 10.2
phosphorylation enrichment [2]: 1.63
phosphorylation enrichment [3]: 2.57
phosphorylation enrichment [4]: 3.2
phosphorylation enrichment [5]: 0.711
phosphorylation enrichment [6]: 4.26
phosphorylation enrichment [7]: 7.06
phosphorylation enrichment [8]: 3.77
phosphorylation enrichment [9]: 0.87
phosphorylation enrichment [10]: 3.06
phosphorylation enrichment [11]: 3.33
phosphorylation enrichment [12]: 2
phosphorylation enrichment [13]: 2.73
SH2 binding enrichment [14]: 0.956
SH2 binding enrichment [15]: 1.14
SH2 binding enrichment [16]: 1.05

Sequence: VTQEQYELYCE [CBL_Y368]
phosphorylation enrichment [1]: 0.887
phosphorylation enrichment [2]: 0.71
phosphorylation enrichment [3]: 1.75
phosphorylation enrichment [4]: 0.892
phosphorylation enrichment [5]: 0.883
phosphorylation enrichment [6]: 0.684
phosphorylation enrichment [7]: 0.571
phosphorylation enrichment [8]: 0.622
phosphorylation enrichment [9]: 1.17
phosphorylation enrichment [10]: 0.989
phosphorylation enrichment [11]: 0.894
phosphorylation enrichment [12]: 1.32
phosphorylation enrichment [13]: 0.814
SH2 binding enrichment [14]: 0.577
SH2 binding enrichment [15]: 1.04
SH2 binding enrichment [16]: 0.625

Sequence: VYPATYHPDHW [EFCAB12_Y544]
phosphorylation enrichment [1]: 0.419
phosphorylation enrichment [2]: 0.385
phosphorylation enrichment [3]: 0.554
phosphorylation enrichment [4]: 0.436
phosphorylation enrichment [5]: 0.526
phosphorylation enrichment [6]: 0.465
phosphorylation enrichment [7]: 0.296
phosphorylation enrichment [8]: 0.564
phosphorylation enrichment [9]: 0.639
phosphorylation enrichment [10]: 0.689
phosphorylation enrichment [11]: 0.828
phosphorylation enrichment [12]: 0.662
phosphorylation enrichment [13]: 0.423
SH2 binding enrichment [14]: 0.635
SH2 binding enrichment [15]: 1.03
SH2 binding enrichment [16]: 0.53

Sequence: WAAQRYGRELR [BAD_Y110]
phosphorylation enrichment [1]: 0.398
phosphorylation enrichment [2]: 0.433
phosphorylation enrichment [3]: 0.887
phosphorylation enrichment [4]: 0.487
phosphorylation enrichment [5]: 0.599
phosphorylation enrichment [6]: 0.445
phosphorylation enrichment [7]: 0.514
phosphorylation enrichment [8]: 0.464
phosphorylation enrichment [9]: 0.782
phosphorylation enrichment [10]: 0.476
phosphorylation enrichment [11]: 0.396
phosphorylation enrichment [12]: 0.742
phosphorylation enrichment [13]: 0.406
SH2 binding enrichment [14]: 0.583
SH2 binding enrichment [15]: 0.758
SH2 binding enrichment [16]: 0.508

Now from value to sequence, other results behind:

SH2 binding enrichment [14]: 1.56
SH2 binding enrichment [15]: 1.21
SH2 binding enrichment [16]: 1.56
Sequence: VQVAYYTMMMN [SPATA17_Y84]
phosphorylation enrichment [1]: 3.67
phosphorylation enrichment [2]: 1.17
phosphorylation enrichment [3]: 1.81
phosphorylation enrichment [4]: 2.56
phosphorylation enrichment [5]: 1.15
phosphorylation enrichment [6]: 1.48
phosphorylation enrichment [7]: 6.47
phosphorylation enrichment [8]: 8.59
phosphorylation enrichment [9]: 4.11
phosphorylation enrichment [10]: 1.65
phosphorylation enrichment [11]: 6.58
phosphorylation enrichment [12]: 1.54
phosphorylation enrichment [13]: 2.52

SH2 binding enrichment [14]: 0.588
SH2 binding enrichment [15]: 0.888
SH2 binding enrichment [16]: 0.51
Sequence: VRTGIYHGGEP [PIK3CA_Y361]
phosphorylation enrichment [1]: 0.457
phosphorylation enrichment [2]: 0.421
phosphorylation enrichment [3]: 0.641
phosphorylation enrichment [4]: 0.498
phosphorylation enrichment [5]: 0.496
phosphorylation enrichment [6]: 0.568
phosphorylation enrichment [7]: 0.431
phosphorylation enrichment [8]: 0.542
phosphorylation enrichment [9]: 0.558
phosphorylation enrichment [10]: 0.586
phosphorylation enrichment [11]: 0.407
phosphorylation enrichment [12]: 0.659
phosphorylation enrichment [13]: 0.419

SH2 binding enrichment [14]: 0.54
SH2 binding enrichment [15]: 1.06
SH2 binding enrichment [16]: 0.482
Sequence: VSSPKYGGDDE [TMCC2_Y473_S475G]
phosphorylation enrichment [1]: 0.451
phosphorylation enrichment [2]: 0.379
phosphorylation enrichment [3]: 0.96
phosphorylation enrichment [4]: 0.424
phosphorylation enrichment [5]: 0.517
phosphorylation enrichment [6]: 0.535
phosphorylation enrichment [7]: 0.416
phosphorylation enrichment [8]: 0.477
phosphorylation enrichment [9]: 0.631
phosphorylation enrichment [10]: 0.429
phosphorylation enrichment [11]: 0.573
phosphorylation enrichment [12]: 0.903
phosphorylation enrichment [13]: 0.437

SH2 binding enrichment [14]: 0.375
SH2 binding enrichment [15]: 0.63
SH2 binding enrichment [16]: 0.584
Sequence: VTGWGYRKLRE [F11_Y521_D526E]
phosphorylation enrichment [1]: 0.508
phosphorylation enrichment [2]: 0.455
phosphorylation enrichment [3]: 0.907
phosphorylation enrichment [4]: 0.578
phosphorylation enrichment [5]: 0.588
phosphorylation enrichment [6]: 0.495
phosphorylation enrichment [7]: 0.546
phosphorylation enrichment [8]: 0.476
phosphorylation enrichment [9]: 0.579
phosphorylation enrichment [10]: 0.407
phosphorylation enrichment [11]: 0.631
phosphorylation enrichment [12]: 0.763
phosphorylation enrichment [13]: 0.415

SH2 binding enrichment [14]: 0.657
SH2 binding enrichment [15]: 0.702
SH2 binding enrichment [16]: 1.31
Sequence: VVAHQYSFAPD [TNS3_Y601]
phosphorylation enrichment [1]: 0.401
phosphorylation enrichment [2]: 0.353
phosphorylation enrichment [3]: 0.684
phosphorylation enrichment [4]: 0.481
phosphorylation enrichment [5]: 0.504
phosphorylation enrichment [6]: 0.542
phosphorylation enrichment [7]: 0.414
phosphorylation enrichment [8]: 0.74
phosphorylation enrichment [9]: 0.529
phosphorylation enrichment [10]: 0.515
phosphorylation enrichment [11]: 0.727
phosphorylation enrichment [12]: 0.736
phosphorylation enrichment [13]: 0.521

SH2 binding enrichment [14]: 1.61
SH2 binding enrichment [15]: 0.884
SH2 binding enrichment [16]: 2
Sequence: VYSIDYYRVGG [NTRK2_Y706_T704I]
phosphorylation enrichment [1]: 3.79
phosphorylation enrichment [2]: 3.13
phosphorylation enrichment [3]: 2.29
phosphorylation enrichment [4]: 5.1
phosphorylation enrichment [5]: 0.788
phosphorylation enrichment [6]: 6.29
phosphorylation enrichment [7]: 9.3
phosphorylation enrichment [8]: 10.9
phosphorylation enrichment [9]: 7.33
phosphorylation enrichment [10]: 3.95
phosphorylation enrichment [11]: 9.09
phosphorylation enrichment [12]: 0.836
phosphorylation enrichment [13]: 4.12

SH2 binding enrichment [14]: 0.62
SH2 binding enrichment [15]: 0.798
SH2 binding enrichment [16]: 0.442
Sequence: VYSSDYFSFVL [USP24_Y2138]
phosphorylation enrichment [1]: 0.875
phosphorylation enrichment [2]: 3.95
phosphorylation enrichment [3]: 2.21
phosphorylation enrichment [4]: 4.61
phosphorylation enrichment [5]: 2.92
phosphorylation enrichment [6]: 4.46
phosphorylation enrichment [7]: 5.03
phosphorylation enrichment [8]: 9.06
phosphorylation enrichment [9]: 5.25
phosphorylation enrichment [10]: 1.95
phosphorylation enrichment [11]: 7.74
phosphorylation enrichment [12]: 1.35
phosphorylation enrichment [13]: 3.74

SH2 binding enrichment [14]: 0.694
SH2 binding enrichment [15]: 0.774
SH2 binding enrichment [16]: 0.368
Sequence: WEPFGFAVTRC [PTPRT_Y412_Y412F]
phosphorylation enrichment [1]: 0.548
phosphorylation enrichment [2]: 0.653
phosphorylation enrichment [3]: 1.18
phosphorylation enrichment [4]: 0.409
phosphorylation enrichment [5]: 1
phosphorylation enrichment [6]: 0.409
phosphorylation enrichment [7]: 0.399
phosphorylation enrichment [8]: 0.447
phosphorylation enrichment [9]: 1.4
phosphorylation enrichment [10]: 0.456
phosphorylation enrichment [11]: 0.845
phosphorylation enrichment [12]: 1.48
phosphorylation enrichment [13]: 0.702

SH2 binding enrichment [14]: 1.12
SH2 binding enrichment [15]: 0.953
SH2 binding enrichment [16]: 8.63
Sequence: WFQTKYEELQI [KRT6B_Y360_YF]
phosphorylation enrichment [1]: 0.46
phosphorylation enrichment [2]: 0.488
phosphorylation enrichment [3]: 0.839
phosphorylation enrichment [4]: 0.398
phosphorylation enrichment [5]: 0.651
phosphorylation enrichment [6]: 0.38
phosphorylation enrichment [7]: 0.403
phosphorylation enrichment [8]: 0.428
phosphorylation enrichment [9]: 0.987
phosphorylation enrichment [10]: 0.417
phosphorylation enrichment [11]: 0.633
phosphorylation enrichment [12]: 0.981
phosphorylation enrichment [13]: 0.446

SH2 binding enrichment [14]: 1.08
SH2 binding enrichment [15]: 0.891
SH2 binding enrichment [16]: 8.95
Sequence: WFQTKYEELQV [KRT6B_Y360_I365V_YF]
phosphorylation enrichment [1]: 0.459
phosphorylation enrichment [2]: 0.525
phosphorylation enrichment [3]: 0.915
phosphorylation enrichment [4]: 0.329
phosphorylation enrichment [5]: 0.712
phosphorylation enrichment [6]: 0.359
phosphorylation enrichment [7]: 0.305
phosphorylation enrichment [8]: 0.478
phosphorylation enrichment [9]: 0.788
phosphorylation enrichment [10]: 0.442
phosphorylation enrichment [11]: 0.564
phosphorylation enrichment [12]: 0.94
phosphorylation enrichment [13]: 0.462
